Reference: article PMC11568366

Target: SET/template-activating factor Iβ (SET/TAF-Iβ), recombinant (UniProt Q01105)
Assay: ITC; 300 μM reduced Cc injected (17 x 2.91 μL) into 30 μM SET/TAF-Iβ (as homodimer) in the cell, 25°C, 10 mM sodium phosphate pH 7.4; WT fitted with two cooperative binding sites, mutants with independent binding sites

- Kd: 23 µM
- dH: -4.6 kcal/mol
- stoichiometry N: 2.2
Substance: Y48pCMF cytochrome c phosphomimetic mutant (reduced) (from UniProt P99999 2-105) (natural protein)
